Target: T1, Extracellular domain (ECD) of the human neuronal α9 nAChR (human, UniProt Q9UGM1 23-238)
T1 construct: also called ECD of human α9 nAChR; water-soluble extracellular domain of human α9 nAChR; source: expressed, enzymatically deglycosylated and purified as described [26]
Assay: radioligand binding
Details: both partners purified

T1 sequence (Q9UGM1 23-238): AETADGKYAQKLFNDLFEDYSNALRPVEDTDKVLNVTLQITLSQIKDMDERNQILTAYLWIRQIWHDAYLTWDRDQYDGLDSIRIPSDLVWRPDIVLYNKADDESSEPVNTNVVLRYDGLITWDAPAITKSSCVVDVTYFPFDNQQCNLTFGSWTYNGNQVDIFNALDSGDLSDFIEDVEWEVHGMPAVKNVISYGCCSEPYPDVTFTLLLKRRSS

B1: PLA2 from porcine pancreas (enzyme)
chain: not shown
notes: also called PP PLA2; porcine pancreatic PLA2
IC50: 5.5 µM

Source: PMC5638340 (PLoS ONE, 2017)
